Changes are numbered by the printed parent chain. Numbers in names are those of the source. Bridge positions count the residues as written; N and C are the ends. Square brackets hold non-standard residues; d marks the D form. Primed or numbered codes have the meaning given here. Ends that are not written are not given here. 5/6FAM = 5/6-carboxyfluorescein; S5 = C=CCCC[C@](C)(N)C(=O)O; PEG3′ = not defined here
B1: FAM ECOR A12G (doubly stapled Elongated COR peptide with A12G) (peptide)
chain: {5/6FAM-PEG3′}-KGEGE[S5]LLK[S5]WGLYSFNDGEKH[S5]KKL[S5]KL
modifications: staple 6-10, 23-27
B2: FAM ECOR (doubly stapled Elongated COR peptide) (peptide)
chain: {FAM-PEG3′}-KGEGE[S5]LLK[S5]WALYSFNDGEKH[S5]KKL[S5]KL
modifications: staple 6-10, 23-27

What was measured:
[1] = target: T1, MBP-tagged RocCOR LRRK2 (wild type); assay: FP
T1 chain: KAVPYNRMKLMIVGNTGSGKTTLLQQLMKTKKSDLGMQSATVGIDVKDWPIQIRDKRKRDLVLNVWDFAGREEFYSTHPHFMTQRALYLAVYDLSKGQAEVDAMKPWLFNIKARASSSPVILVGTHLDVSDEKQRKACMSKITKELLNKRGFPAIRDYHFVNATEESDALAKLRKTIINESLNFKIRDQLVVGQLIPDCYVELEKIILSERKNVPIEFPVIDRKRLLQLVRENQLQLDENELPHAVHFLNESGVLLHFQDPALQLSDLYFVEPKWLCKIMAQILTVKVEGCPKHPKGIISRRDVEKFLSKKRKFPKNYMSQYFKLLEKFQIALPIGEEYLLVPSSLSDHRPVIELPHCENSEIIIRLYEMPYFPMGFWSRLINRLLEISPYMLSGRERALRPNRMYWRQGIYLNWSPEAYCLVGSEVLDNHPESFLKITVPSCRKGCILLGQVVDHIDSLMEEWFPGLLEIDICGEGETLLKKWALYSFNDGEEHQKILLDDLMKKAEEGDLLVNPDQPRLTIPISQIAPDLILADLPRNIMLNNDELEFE

[2] = target: T2, MBP-tagged R1441C RocCOR LRRK2; assay: FP
T2 chain: T1 chain with R114C

| Binder | Kd [1] | Kd [2] |
| --- | --- | --- |
| B1 | 57 nM | 32 nM |
| B2 | 45 nM | 24 nM |

— PMC10251477 (2023)
